Numbering of substitutions follows the chain as printed.
Legend:
[1] = target: T1, BCMA on BCMA-positive NCI-H929, ARP-1 and U266B1 cells (human, UniProt Q02223 1-184); assay: FACS, NCI-H929 cells
T1 construct: they are human cell lines; also called B-cell maturation antigen; TNFRSF17
T1 sequence: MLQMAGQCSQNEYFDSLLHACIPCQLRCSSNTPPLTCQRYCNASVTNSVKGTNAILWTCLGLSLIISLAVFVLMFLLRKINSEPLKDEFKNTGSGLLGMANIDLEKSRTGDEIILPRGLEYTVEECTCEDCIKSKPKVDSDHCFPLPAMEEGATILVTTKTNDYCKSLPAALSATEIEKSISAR
Experimental: (§1) Variants for which sufficient protein was purified in secondary screening were tested in a fluorescence-activated cell sorting (FACS) cell-binding assay. […] 6-12 point dilutions of anti-BCMA variants starting from concentrations of about 100-200 nM antibody were dispensed into each well using a BioMekFX (Beckman Coulter). Cells were then incubated on ice for 1 hr, washed with FACS buffer and incubated for 1 hr on ice with […] FACS buffer containing […] Alexa647-conjugated Goat Anti-Human IgG dispensed using BioMekFX (Beckman Coulter). Cells were then washed 2× with FACS buffer and fixed for 10 minutes in […] PBS with 2% PFA prior to fluorescence detection. Samples were acquired using a Beckton Dickinson LSRII FACS. Geometric Mean Fluorescence Intensity of BCMA antibody binding was analyzed using FlowJo® software (Trec Star, Inc.).

[2] = target: T1, BCMA on BCMA-positive NCI-H929, ARP-1 …; assay: cell-based or functional assay
[3] = target: cynomolgus BCMA on 293T-cynoBCMA cells (cynomolgus, UniProt Q02223 1-184 (human entry)); assay: FACS, 293T-cynoBCMA cells
Experimental: as §1

[4] = target: T1, BCMA on BCMA-positive NCI-H929, ARP-1 …; assay: cell-based or functional assay; remark: listed apart in the source

cynomolgus BCMA on 293T-cynoBCMA cells, sequence (Q02223 other isoform, or with tags, fused parts or gaps): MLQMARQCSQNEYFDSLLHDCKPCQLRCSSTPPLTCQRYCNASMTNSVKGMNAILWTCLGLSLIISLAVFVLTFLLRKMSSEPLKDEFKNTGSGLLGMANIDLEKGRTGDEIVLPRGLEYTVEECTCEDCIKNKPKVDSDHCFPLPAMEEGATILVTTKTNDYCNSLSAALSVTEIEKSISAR

B1: 9A8 (antibody, V domains shown)
VH: AVTLDESGGGLQTPGGTLSLVCKASGFTFSSFNMFWVRQAPGKGLEWVAYIRNDGNSASYGPAVKGRATISRDNGQSTVRLQLNNLRAEDTATYYCAKTTCIGSGGCIDTWGHGTEVIVSS
VL: ALTQPSSVSANPGETVKITCSGGSSDYGWFQQKSPGSAPVTVIYSNNQRPSGIPSRFSGSKSGSTGTLTITGVQAEDEAIYYCANVDYTDDVFGAGTTLTVL
notes: chicken HybriFree-derived antibody; also called Antibody 30
[1]
  Bmax (MFI): 21100 MFI
[2]
  ARP-1, SC239-conjugated 2° antibody cell killing, EC50: 2.4 nM
  ARP-1, SC239-conjugated 2° antibody cell killing, Span: 82%
  U266B1, SC239-conjugated 2° antibody cell killing, EC50: 2.3 nM
  U266B1, SC239-conjugated 2° antibody cell killing, Span: 42%
[3]
  Bmax (MFI): 17800 MFI

B2: 10G5 (antibody, V domains shown)
VH: B1 VH with T17V, R52S, N56S, A58T, Y95F
VL: B1 VL with S24N, S25Y, F30Y, V42L, S45Y, Q48K, G52D, Y88S
notes: chicken HybriFree-derived antibody; also called Antibody 31
[1]
  Bmax (MFI): 25800 MFI
[2]
  ARP-1, SC239-conjugated 2° antibody cell killing, EC50: 3.5 nM
  ARP-1, SC239-conjugated 2° antibody cell killing, Span: 82%
  U266B1, SC239-conjugated 2° antibody cell killing, EC50: 1.9 nM
  U266B1, SC239-conjugated 2° antibody cell killing, Span: 63%
[3]
  Bmax (MFI): 24400 MFI

B3: 11D6 (antibody, V domains shown)
VH: B1 VH with K43E, N56R, A58T, A92G, Y95F, I102V
VL: B1 VL with K17E, S24N, S45R, G52D, K61G, G66N, A84G, Y88F
notes: chicken HybriFree-derived antibody; also called Antibody 32
[1]
  Bmax (MFI): 26400 MFI
[2]
  ARP-1, SC239-conjugated 2° antibody cell killing, EC50: 3.8 nM
  ARP-1, SC239-conjugated 2° antibody cell killing, Span: 83%
  U266B1, SC239-conjugated 2° antibody cell killing, EC50: 1.1 nM
  U266B1, SC239-conjugated 2° antibody cell killing, Span: 67%
[3]
  Bmax (MFI): 27700 MFI

B4: SRP2137-A05 (antibody, IgG1, V domains shown)
VH: EVQLVESGGGLVQPGGSLRLSCAASGFNINNSYIHWVRQAPGKGLEWVGWIYPYSGYTNYADSVKGRFTISADTSKNTAYLQMNSLRAEDTAVYYCARDYGPWYGTGVLDYWGQGTLVTVSS
VL: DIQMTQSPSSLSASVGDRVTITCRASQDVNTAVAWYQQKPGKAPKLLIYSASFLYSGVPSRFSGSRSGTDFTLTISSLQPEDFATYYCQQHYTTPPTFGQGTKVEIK
notes: IgG1 with trastuzumab light chain, His/FLAG-tagged, cell-free expressed; also called Antibody 14
[1]
  Bmax (MFI): 2690 MFI
[3]
  Bmax (MFI): 1910 MFI

B5: SRP2265-F02 (antibody, IgG1, V domains shown)
VH: EVQLVESGGGLVQPGGSLRLSCAASGFNISAPGIHWVRQAPGKGLEWVGFINPAGGYTDYADSVKGRFTISADTSKNTAYLQMNSLRAEDTAVYYCARDYIRQYWTYVLDYWGQGTLVTVSS
VL: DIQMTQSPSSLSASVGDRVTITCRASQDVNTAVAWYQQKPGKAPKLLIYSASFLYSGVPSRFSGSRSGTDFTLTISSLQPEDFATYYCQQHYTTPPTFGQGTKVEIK
notes: IgG1 with trastuzumab light chain, His/FLAG-tagged, cell-free expressed; also called Antibody 4
[1]
  Bmax (MFI): 12200 MFI
  Kd: 4.5 nM
[4]
  ARP-1, SC225-conjugated 2° antibody cell killing, EC50: 1.6 nM
  ARP-1, SC225-conjugated 2° antibody cell killing, Span: 62%
  U266B1, SC225-conjugated 2° antibody cell killing, EC50: 1 nM
  U266B1, SC225-conjugated 2° antibody cell killing, Span: 62%
[3]
  Bmax (MFI): 21800 MFI
  Kd: 5 nM

B6: SRP2265-F06 (antibody, IgG1, V domains shown)
VH: B5 VH with A31Y, R102L
VL: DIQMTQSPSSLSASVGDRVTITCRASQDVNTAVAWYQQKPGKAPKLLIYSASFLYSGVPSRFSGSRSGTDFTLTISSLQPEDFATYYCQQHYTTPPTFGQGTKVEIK
notes: IgG1 with trastuzumab light chain, His/FLAG-tagged, cell-free expressed; also called Antibody 2
[1]
  Bmax (MFI): 11400 MFI
[4]
  ARP-1, SC225-conjugated 2° antibody cell killing, EC50: 1.2 nM
  ARP-1, SC225-conjugated 2° antibody cell killing, Span: 62%
  U266B1, SC225-conjugated 2° antibody cell killing, EC50: 0.9 nM
  U266B1, SC225-conjugated 2° antibody cell killing, Span: 59%
[3]
  Bmax (MFI): 25800 MFI

B7: SRP2265-F03 (antibody, IgG1, V domains shown)
VH: B5 VH with S30R, A31G, N52S, G55A, Y100F, I101V, R102Q, Q103S
VL: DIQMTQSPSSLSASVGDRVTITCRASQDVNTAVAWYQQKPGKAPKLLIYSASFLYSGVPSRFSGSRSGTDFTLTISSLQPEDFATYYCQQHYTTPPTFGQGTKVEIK
notes: IgG1 with trastuzumab light chain, His/FLAG-tagged, cell-free expressed; also called Antibody 7
[1]
  Bmax (MFI): 12500 MFI
  Kd: 5.3 nM
[4]
  ARP-1, SC225-conjugated 2° antibody cell killing, EC50: 2.3 nM
  ARP-1, SC225-conjugated 2° antibody cell killing, Span: 57%
  U266B1, SC225-conjugated 2° antibody cell killing, EC50: 0.8 nM
  U266B1, SC225-conjugated 2° antibody cell killing, Span: 56%

B8: SRP2265-F05 (antibody, IgG1, V domains shown)
VH: B5 VH with S30I, I101V, R102N, Q103A
VL: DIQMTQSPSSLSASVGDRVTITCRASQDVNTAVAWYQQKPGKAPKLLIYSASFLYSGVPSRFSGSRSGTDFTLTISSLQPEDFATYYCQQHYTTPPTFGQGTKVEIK
notes: IgG1 with trastuzumab light chain, His/FLAG-tagged, cell-free expressed; also called Antibody 3
[1]
  Bmax (MFI): 12700 MFI
  Kd: 10.3 nM
[4]
  ARP-1, SC225-conjugated 2° antibody cell killing, EC50: 1.8 nM
  ARP-1, SC225-conjugated 2° antibody cell killing, Span: 52%
  U266B1, SC225-conjugated 2° antibody cell killing, EC50: 1.2 nM
  U266B1, SC225-conjugated 2° antibody cell killing, Span: 61%
[3]
  Bmax (MFI): 18500 MFI
  Kd: 3 nM

B9: SRP2265-A09 (antibody, IgG1, V domains shown)
VH: B5 VH with S30I, A31G, I101V, R102Y, Q103N
VL: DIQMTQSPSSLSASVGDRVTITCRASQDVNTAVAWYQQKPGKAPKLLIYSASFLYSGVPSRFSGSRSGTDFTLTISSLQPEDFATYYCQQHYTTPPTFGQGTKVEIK
notes: IgG1 with trastuzumab light chain, His/FLAG-tagged, cell-free expressed; also called Antibody 6
[1]
  Bmax (MFI): 11700 MFI
  Kd: 5.2 nM
[4]
  ARP-1, SC225-conjugated 2° antibody cell killing, EC50: 1.9 nM
  ARP-1, SC225-conjugated 2° antibody cell killing, Span: 55%
  U266B1, SC225-conjugated 2° antibody cell killing, EC50: 0.9 nM
  U266B1, SC225-conjugated 2° antibody cell killing, Span: 58%
[3]
  Bmax (MFI): 23800 MFI
  Kd: 6.2 nM

B10: SRP2265-E02 (antibody, IgG1, V domains shown)
VH: B5 VH with S30Y, A31V, P32S, M83T, I101V, R102Y
VL: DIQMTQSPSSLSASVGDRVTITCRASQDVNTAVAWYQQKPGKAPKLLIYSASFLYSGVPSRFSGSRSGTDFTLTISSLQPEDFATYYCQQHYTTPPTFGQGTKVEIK
notes: IgG1 with trastuzumab light chain, His/FLAG-tagged, cell-free expressed; also called Antibody 8
[1]
  Bmax (MFI): 11600 MFI
[4]
  ARP-1, SC225-conjugated 2° antibody cell killing, EC50: 1.5 nM
  ARP-1, SC225-conjugated 2° antibody cell killing, Span: 55%
  U266B1, SC225-conjugated 2° antibody cell killing, EC50: 0.8 nM
  U266B1, SC225-conjugated 2° antibody cell killing, Span: 53%
[3]
  Bmax (MFI): 26700 MFI
  Kd: 5.1 nM

B11: SRP2265-A06 (antibody, IgG1, V domains shown)
VH: B5 VH with S30Y, A31R, P32S, I101V, R102P
VL: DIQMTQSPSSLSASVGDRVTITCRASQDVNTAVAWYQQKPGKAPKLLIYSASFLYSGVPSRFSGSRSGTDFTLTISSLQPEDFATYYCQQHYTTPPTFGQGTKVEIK
notes: IgG1 with trastuzumab light chain, His/FLAG-tagged, cell-free expressed; also called Antibody 13
[1]
  Bmax (MFI): 11100 MFI
[4]
  ARP-1, SC225-conjugated 2° antibody cell killing, EC50: 2.9 nM
  ARP-1, SC225-conjugated 2° antibody cell killing, Span: 68%
  U266B1, SC225-conjugated 2° antibody cell killing, EC50: 1.3 nM
  U266B1, SC225-conjugated 2° antibody cell killing, Span: 59%
[3]
  Bmax (MFI): 22100 MFI

B12: SRP2265-D05 (antibody, IgG1, V domains shown)
VH: B5 VH with A31G, G55A, T69A, Y100F, I101V, R102Y, Q103A
VL: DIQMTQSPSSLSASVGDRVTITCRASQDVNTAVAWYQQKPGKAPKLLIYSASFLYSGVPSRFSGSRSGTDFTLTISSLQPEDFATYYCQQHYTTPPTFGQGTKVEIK
notes: IgG1 with trastuzumab light chain, His/FLAG-tagged, cell-free expressed; also called Antibody 10
[1]
  Bmax (MFI): 10900 MFI
  Kd: 4 nM
[4]
  ARP-1, SC225-conjugated 2° antibody cell killing, EC50: 1 nM
  ARP-1, SC225-conjugated 2° antibody cell killing, Span: 50%
  U266B1, SC225-conjugated 2° antibody cell killing, EC50: 0.8 nM
  U266B1, SC225-conjugated 2° antibody cell killing, Span: 53%
[3]
  Bmax (MFI): 21300 MFI
  Kd: 3.8 nM

B13: SRP2213-A06 (antibody, IgG1, V domains shown)
VH: EVQLVESGGGLVQPGGSLRLSCAASGFNISSYAIHWVRQAPGKGLEWVGVISPYGGYTEYADSVKGRFTISADTSKNTAYLQMNSLRAEDTAVYYCARDFYDRYSTYVLDYWGQGTLVTVSS
VL: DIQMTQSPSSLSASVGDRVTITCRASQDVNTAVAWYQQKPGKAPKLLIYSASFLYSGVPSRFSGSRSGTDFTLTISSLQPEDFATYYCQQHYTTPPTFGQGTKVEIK
notes: IgG1 with trastuzumab light chain, His/FLAG-tagged, cell-free expressed; also called Antibody 23
[1]
  Bmax (MFI): 2510 MFI
[3]
  Bmax (MFI): 3620 MFI

B14: SRP2265-B06 (antibody, IgG1, V domains shown)
VH: B5 VH with S30R, A31V, P32S, I101V, R102Q, Q103A
VL: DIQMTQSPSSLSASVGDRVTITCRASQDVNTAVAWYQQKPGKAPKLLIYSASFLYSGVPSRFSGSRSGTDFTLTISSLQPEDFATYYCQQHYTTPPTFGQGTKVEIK
notes: IgG1 with trastuzumab light chain, His/FLAG-tagged, cell-free expressed; also called Antibody 5
[1]
  Bmax (MFI): 11900 MFI
  Kd: 6.2 nM
[4]
  ARP-1, SC225-conjugated 2° antibody cell killing, EC50: 1.6 nM
  ARP-1, SC225-conjugated 2° antibody cell killing, Span: 67%
  U266B1, SC225-conjugated 2° antibody cell killing, EC50: 0.6 nM
  U266B1, SC225-conjugated 2° antibody cell killing, Span: 59%
[3]
  Bmax (MFI): 26600 MFI
  Kd: 3.4 nM

B15: SRP2265-C03 (antibody, IgG1, V domains shown)
VH: B5 VH with S25P, A31V, I101V, R102P
VL: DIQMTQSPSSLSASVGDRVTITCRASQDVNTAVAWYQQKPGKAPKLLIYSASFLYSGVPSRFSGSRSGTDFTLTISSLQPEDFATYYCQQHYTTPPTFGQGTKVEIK
notes: IgG1 with trastuzumab light chain, His/FLAG-tagged, cell-free expressed; also called Antibody 11
[1]
  Bmax (MFI): 11500 MFI
  Kd: 4.4 nM
[4]
  ARP-1, SC225-conjugated 2° antibody cell killing, EC50: 2.2 nM
  ARP-1, SC225-conjugated 2° antibody cell killing, Span: 70%
  U266B1, SC225-conjugated 2° antibody cell killing, EC50: 1.1 nM
  U266B1, SC225-conjugated 2° antibody cell killing, Span: 61%
[3]
  Bmax (MFI): 24100 MFI
  Kd: 4.9 nM

B16: SRP2265-D11 (antibody, IgG1, V domains shown)
VH: B5 VH with A31G, G55A, R102Y
VL: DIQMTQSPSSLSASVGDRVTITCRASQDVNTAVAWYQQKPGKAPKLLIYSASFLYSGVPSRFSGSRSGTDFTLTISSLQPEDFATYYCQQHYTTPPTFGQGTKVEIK
notes: IgG1 with trastuzumab light chain, His/FLAG-tagged, cell-free expressed; also called Antibody 9
[1]
  Bmax (MFI): 9620 MFI
  Kd: 4.4 nM
[4]
  ARP-1, SC225-conjugated 2° antibody cell killing, EC50: 1.9 nM
  ARP-1, SC225-conjugated 2° antibody cell killing, Span: 51%
  U266B1, SC225-conjugated 2° antibody cell killing, EC50: 1 nM
  U266B1, SC225-conjugated 2° antibody cell killing, Span: 54%
[3]
  Bmax (MFI): 21900 MFI
  Kd: 2.5 nM

B17: SRP2265-C02 (antibody, IgG1, V domains shown)
VH: B5 VH with S30G, A31V, P32S, D62G, R102Y, Q103S
VL: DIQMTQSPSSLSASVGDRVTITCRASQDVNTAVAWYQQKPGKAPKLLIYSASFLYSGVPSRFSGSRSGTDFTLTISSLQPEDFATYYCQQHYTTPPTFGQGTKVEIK
notes: IgG1 with trastuzumab light chain, His/FLAG-tagged, cell-free expressed; also called Antibody 12
[1]
  Bmax (MFI): 11200 MFI
  Kd: 4.3 nM
[4]
  ARP-1, SC225-conjugated 2° antibody cell killing, EC50: 1.5 nM
  ARP-1, SC225-conjugated 2° antibody cell killing, Span: 55%
  U266B1, SC225-conjugated 2° antibody cell killing, EC50: 0.7 nM
  U266B1, SC225-conjugated 2° antibody cell killing, Span: 51%
[3]
  Bmax (MFI): 17400 MFI
  Kd: 2.5 nM

Source: patent US20240368295A1 (SUTRO BIOPHARMA, published 2024)
